This is an account of results in a protein production outcome set (Wang et al. 2014).

A short description of the data set: label from the status in PepcDB records.
“MTDTLLVTSTNAGTGKTAVSLALARLAGDRDRTVGYMKPKGTRLQSNVGKTLDADPLLARDLLDLDAEIHDLEPVVYSPTFIQGAVRGREDSANLADRVRDAYDELATDRDVMLVEGAGTPTTGGIVDLTDGDIAALLDARAIVVADYTGPSDVDDVLAAADALGDRCAGVVFNAVADAVYDDVESEVTPFLESQGIPVLGVLPVERDLAGVTVDDLASELGATVLTEDTATTDAIVERFLVGAMSSESALSHFRRTKDAAVITGGDRADIQTAALDAPGVQCLVLTGGHRPSGAVLGKATDAGVPVLSVDADTLTTLERAEELVRDGRVRDEHTVDVMQRLLHDHADTDRLLD”: the protein production result is “failed”.

“MTDTPVPSEATASGWRRALPVIISLAILAMALHALSSQFTDHGYRQIRQAFRALGAGQIALTLLLGLSSYACLVGFDWVGLKRTGKRLHPARVGITAFMAHAVGQTLGFAALTGGAVRLRGYGSVGLTLAEIGQVVLMSTLGFIFGAWVLLGIALMLEPEAAARALPIAAEGIRIAGIALLAGYLAMLVLVGRHGREFGIRSHRFWLPDRTTVLGVTALSVVELGLAAAAFYVLLPPDPGTGYFGFIGIWLVAVVAGLISTVPAGLGVFEWSLLKLLPHVTPAAVLAAALAYRVTYYIVPLLISVAMAAATGLRAPVRASASTARTVWKTLRPWLPQILALAVFAVGAALVIDGTLPTPRARQEVAPLPLIETSHLLVSLGGMLLLLIGQGLQRRSHSAWVLALGVCVLLPPLSLLRGSHISVSLSAALAAVALWAARREFYRQGALLDEAWSWRWLSNLGLVLVATFWLLFFVYSHVEYSNDLWWQFATSANAPRALRALLILCVGVILFGTARLLRGGRRPMPPADAQALQALAPVLASSADTQACLALTGDKAFLRDEKGLGFVMMQRYGGSLISMGDPVGPPEVARALIWRFREEADHMGLRPVFYQVGEKYWQTYLDMGLTLVKLGEEAIVPLEGFTLEGRDRADLRQAWNRGKRGGLSFRMLQPEQVDAVMAELGEVSEQWLDEKAGEEKGFSLGSFDPDYLRRFPMAVAEAEGKIVAFANVWCAPAGGELSVDLMRHSAQAPKGTMDFLFIELFLWGHANGYTRFSLGMAPLSGLAEHRLAGRWNRFASLVARHGERFYGFSGLRRFKSKFAPTWRPRYLVAPGGMHLPAALLDVTRLISVDPGRQD”: the protein production result is recorded as “failed”.

As for “MTDTRPAQSLGPGLQPETRSLGDEPVRLVDTTMLYAPRSGGVRRYLSSKRAWLASHRPDVRHTLVVPGARDFHDGRGQVSIYAAPLPFGAGYRWPVVKQTWMERLIRQQPDLIEAGDPYTPGLAALRAGDALGVPVVGFCHTDLGKLAALHIGDWAEKPVQKRWAAIYRQFDQAVAPSRFIAGRLIEAGVRDAIGLPLGVDTAIFHPERGDRDGLRRRLGLSPKDRLLVFAGRPAREKKLDVLVAAVERLGDPYKLLFVGAGGGAPVSDRTLCIDYVRDPVELASILASCDAFVHANDNEPFGLIVLEAMACGLPVVGVSAGGVAESVDAAVGQLAVASEATAFADAIEALFERDVTVVGEAARRRAVERHGWDAVFTELCLIYDRLTGRRAFSSASAHAGH”, the protein production result is listed as “failed”.

Regarding “MTDTSTADVDLVGEEMALNVARTALFAALMGAFAYVSFPYPLSPAPVTLQVLGVFLAGLLLGPLWGGAAMVVYLLAGVLGAPVFSAGEAGIGVILGPQGGYLLSYPFAAAIVGGIVHRGTDIKPLETVSAALMIAAMILSTVVIYAFGIPFMWWNLEMTLLNAVIAGGVVFIPAEAAKMAAAIGIVRSDAIRAE”, the protein production entry is recorded as “failed”.

In the case of “MTDVRHCPAVLIAAPASGQGKTTVTAALARLHRNRGRKVRVFKCGPDFLDPMILERASGAAVYQLDMWMVGEQESRRLLWEAAGEADLILIEGVMGLFDGTPSSADLARHFGVPVLGVIDGTAMAQTFGALALGLARYQPDLPFAGVLANRVGTLRHAQLLEGSLTEGLRWYGALSRETDIELPSRHLGLVQASELNDLDLRLDAAAEALASSCQVELPPAVSFAAPTPVACAPLLKGVRIAVARDEAFAFTYGASLDLLRAMGAQLSFFSPIHDTQLPDADSLYLPGGYPELHHQALARNSSMLQAIRAHHAAGKPLLAECGGMLYLLDSLTDVEGQRAELLGLLPGDAVMQKRLAALALQAVDLPEGSLRGHTYHHSLTSTELLPIARGLSPNGGRGAEAVYRQGRMTASYVHFYFPSNPAAVAALFAPGAPVEPVLAEGVAGELEHHHHHH”, the protein production result was “failed”.

As for “MTDYASLLMSLTSGSALDSGCMEQLIQEGLYVTPALFSVDRAALWVLDKDEQAYLCEADFFDGMIDHRSSQRLTKKEDAELFSFLESTSEIIINNYFTYESFGLNTSRILSRFQLCSLLLIPLQIKGENRGFIFLGDSQKNIEWSPDVLFASRILVQLFERALLALDNSVAETKLQHQYQLMSEIEKLAK”, the protein production result is reported as “failed”.

For the sequence “MTDYGEEQRNELEALESIYPDSFTVLSENPPSFTITVTSEAGENDETVQTTLKFTYSEKYPDEAPLYEIFSQENLEDNDVSDILKLLALQAEENLGMVMIFTLVTAVQEKLNEIVDQIKTR”, the protein production entry is given as “not failed”.

In the case of “MTEDERFAWLQLAFTPYIGAESFLLLMRSFGSAQNALSAPAEQVAPAVRHKHALEAWRNAEKRALARQAAEAALEWEMRDGCRLMLLQDEDFPEMLTQGLTAPPVLFLRGNVRLLHKPSAAIVGSRHATPQAMRIAKDFGRALGGKGIPTVSGMASGIDTAAHQGALEAEGGTVAVWGTGIDRIYPPANKNLAYEIAEKGLIVSEFPIGTRPYAGNFPRRNRLIAALSQVTLVVEAALESGSLITAGLAAEMGREVMAVPGSIDNPHSKGCHKLIKDGAKLTECLDDILNECPGLLQNTGASSYSINKDTPDTGRRAVQTAYAPPPAAKMPSEGAAGGTAVGGILDKMGFDPVHPDVLAGQLAMPAADLYAALLELELDGSVAAMPGGRYQRIRT”, the protein production result is listed as “failed”.

For “MTEEFNESMINDIKEGDKVTGEVQQVEDKQVVVHINGGKFNGIIPISQLSTHHIENPSEVVKVGDEVEAYVTKIEFDEENDTGAYILSKRQLETEKSYEYLQEKLDNDEVIEAEVTEVVKGGLVVDVGQRGFVPASLISTDFIEDFSVFDGQTIRIKVEELDPENNRVILSRKAVEQLENDAKKASILDSLNEGDVIDGKVARLTNFGAFINIGGVDGLVHVSELSHGTCSNTRRSCVSRLEHHHHHH”, the protein production result is “not failed”.

In the case of “MTEEQVQHWFDMFGSLGYIAGFLLPFIEAFIPILPIIVFIIVNVNAFGWFIGTVLAWAGTVAGSYIVFLFFRRLNNTKYMKKVQQRTSVQRLIHFIDRRGVIPIFILMCFPFTPSALVNIVASMSHIKAHAYLTVLIISKFIMIGLVGWLGNDITTLFSNPTRLITIVVVIIIVWFVGRKIEKHFMSSSEE”, the protein production result is listed as “failed”.

Regarding “MTEGGRVSNTSRVTRRTGLRTAAAVAAALPLLSASPASASRNRGRRLDVMTFNLRFASASEPHSWAVRRPVMRELLRRERPHVIGTQEGLYQQVRDIEADLGPHYDWIGTGRAGGSRDEFMAVFYDTRRLAPLEYDHFWLSDTPDVIGSNTWGGGSIRMVTRVRFRDLADGDRPFHFLNTHLDNASQYARARAAALIADRIAGLDRSQPLVVTGDFNAAAHKNAVYETMLGAGLVDTWDTAAERGKLYGTFHGYKPLVPDGDRIDWILASPGVAAHCASINAFSSNGQFPSDHLPVQASLRLA”, the protein production entry is reported as “failed”.

Consider “MTELVQQLALLDALLSNWDGVLVRMGAPDVLRDEALAALAVKLSSAESPDDLDLLLDDLFDLVEDTPAYDYVRGLIARARLDTGTVAKTRGGYAGELVSDDEKSLLFGASRLAGRALGNAVSADVEPCQVEVFFATNRKSSDASDLQFTGEHDAGGYTCGVAHVTIPVGVHRAGVLEGKRWWHLLREKDDSRRYVVLGSVEKLAEDLFTTRIVEGAPECRDLLVFLHGFNVTFEDAARQAAQFAFDLQFQGRVVLYSWPSLGSLAGYCADEERAFLSNGRFAGFLGMLEDGPWDKVHILAHSMGNRVMLYGLSGNSWPNGRISQVVFAAADVYVETFRELFPKIREKAALYTSYTSKKDRALLISGILHKAKRIGISRGEPFVMDGLETIDASKVDNGFPGHGYFAEETKLIEDISQLLGKGLSAGRRKLYQPPSKAYWDFR”, for which the protein production entry is recorded as “failed”.

As for “MTENNQTAPNPESLDGLSYEEAREQLVAVVGRLEAGGASLEESLALWERGEALAKRCEDWLEGARKRLATARDASSDGGTPA”, the protein production entry is “failed”.

For “MTENSRKTATELFEFLDGLGISHTTKQHEPVFTVAESQSLRDLIPGGHTKNLFVKDKKDQYFVLTVEENAVVDLKSVHKTIGAASRVSFGRPEKMLEYLGVVPGSVTVFGAINDTARQVTFVLDSDLLENELVNGHPLSNDQTTTIASKDLIRFLEATGHAPLVLKVSE”, the protein production entry is given as “not failed”.
